The source of these data is PMC6506550 (Nature Communications, 2019).

What all share (experiment): flow cytometry on cells
For orientation: Flow cytometry measures light scatter and fluorescence of single cells or particles in a stream.

The target of assay [1] is full-length wild-type RSV F on the cell surface (respiratory syncytial virus (strain not stated)) (UniProt P03420).
For assay [2], the target named is T1, full-length wild-type RSV F on the cell surface (Respiratory syncytial virus, …, UniProt P03420).
T1 construct: also called full-length wild-type F; full-length RSV F; source: FreeStyle 293-F or HeLa cells, cotransfected with furin, on the cell surface
To be noted: one partner purified.

Assay [3] has as its target T2, full-length RSV F with the DS-Cav1 stabilizing mutations, on the cell surface (Respiratory syncytial virus, strain not …, UniProt P03420, S155C | S290C | S190F | V207L).
T2 construct: source: FreeStyle 293-F, cotransfected with furin, on the cell surface
To be noted: one partner purified.

Assay [4] deals with T3, RSV F variant in which the cytoplasmic tail was replaced with a Foldon trimerization motif, on the cell … (Respiratory syncytial virus, strain not …, UniProt P03420, stabilised).
T3 construct: source: FreeStyle 293-F or HeLa cells, cotransfected with furin, on the cell surface; not shown: Foldon trimerization motif, C-terminal, kept
The note with it: one partner purified.

The target in assay [5] is T4, full-length RSV F with the PR-DM stabilizing mutations, on the cell surface (Respiratory syncytial virus, strain not …, UniProt P03420, N67I | S215P).
T4 construct: source: FreeStyle 293-F, cotransfected with furin, on the cell surface
To be noted: one partner purified.

With motavizumab Fab, the percent of CF-647-labeled CR9501 IgG binding blocked in assay [1] was < 20%.

B1: CR9501 IgG (antibody, V domains shown)
VH: QVQLVQSGPGLVKPSQTLALTCTVSGASINSDNYYWTWIRQRPGGGLEWIGHISYTGNTYYTPSLKSRLSMSLETSQSQFSLRLTSVTAADSAVYFCAACGAYVLISNCGWFDSWGQGTQVTVSS
VL: EIVMTQSPSSLSASIGDRVTITCQASQDISTYLNWYQQKPGQAPRLLIYGASNLETGVPSRFTGSGYGTDFSVTISSLQPEDIATYYCQQYQYLPYTFAPGTKVEIK
notes: also called CF-647-labeled CR9501 IgG
On to B1, for which the binding result in assay [2], in assay [3], in assay [4] and in assay [5] was “binds” each time.

B2: CR9501 Fab (Fab, V domains shown)
VH: QVQLVQSGPGLVKPSQTLALTCTVSGASINSDNYYWTWIRQRPGGGLEWIGHISYTGNTYYTPSLKSRLSMSLETSQSQFSLRLTSVTAADSAVYFCAACGAYVLISNCGWFDSWGQGTQVTVSS
VL: EIVMTQSPSSLSASIGDRVTITCQASQDISTYLNWYQQKPGQAPRLLIYGASNLETGVPSRFTGSGYGTDFSVTISSLQPEDIATYYCQQYQYLPYTFAPGTKVEIK
As to B2, the binding result in assay [4] is recorded as “binds”.
